# In paper doi:10.1101/2024.10.01.615909 (bioRxiv, 2024):
# T1: S-tag-KLCR1 (Arabidopsis thaliana, UniProt O81629 1-609)
# T1 sequence: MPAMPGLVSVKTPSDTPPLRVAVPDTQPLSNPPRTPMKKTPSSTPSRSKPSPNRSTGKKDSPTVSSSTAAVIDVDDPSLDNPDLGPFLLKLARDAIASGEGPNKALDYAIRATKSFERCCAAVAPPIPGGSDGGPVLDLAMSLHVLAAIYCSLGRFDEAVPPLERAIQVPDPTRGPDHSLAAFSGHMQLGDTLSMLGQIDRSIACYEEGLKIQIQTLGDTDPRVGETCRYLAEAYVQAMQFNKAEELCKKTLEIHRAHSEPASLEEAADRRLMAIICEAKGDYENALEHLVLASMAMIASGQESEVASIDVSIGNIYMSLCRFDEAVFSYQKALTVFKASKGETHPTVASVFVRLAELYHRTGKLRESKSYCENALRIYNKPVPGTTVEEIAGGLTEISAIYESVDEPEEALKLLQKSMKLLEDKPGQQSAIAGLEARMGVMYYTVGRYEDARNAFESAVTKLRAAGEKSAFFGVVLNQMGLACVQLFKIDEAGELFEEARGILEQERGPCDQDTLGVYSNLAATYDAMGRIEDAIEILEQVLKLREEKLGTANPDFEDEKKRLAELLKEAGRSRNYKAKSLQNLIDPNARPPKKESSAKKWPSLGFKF
# B1: His8-SUMO (HS)-IQD2 (natural protein)
# chain: MGKKAKWFSSVKKAFSPDSKKSKQKLAEGQNGVISNPPVVDNVRQSSSSPPPALAPREVRVAEVIVERNRDLSPPSTADAVNVTATDVPVVPSSSAPGVVRRATPTRFAGKSNEEAAAILIQTIFRGYLARRALRAMRGLVRLKLLMEGSVVKRQAANTLKCMQTLSRVQSQIRARRIRMSEENQARQKQLLQKHAKELAGLKNGDNWNDSIQSKEKVEANLLSKYEATMRRERALAYSYSHQQNWKNNSKSGNPMFMDPSNPTWGWSWLERWMAGRPLESSEKEQSNSNNDNAASVKGSINRNEAAKSLTRNGSTQPNTPSSARGTPRNKNSFFSPPTPSRLNQSSRKSNDDDSKSTISVLSERNRRHSIAGSSVRDDESLAGSPALPSYMVPTKSARARLKPQSPLGGTTQENEGFTDKASAKKRLSYPTSPALPKPRRFSAPPKVESGGVTVTNGAGS
# Biological target: T1, S-tag-KLCR1
# Assay: co-sedimentation
binder,measurement,value
B1,binding result,binds
